Target: maize CDK (cyclin-dependent protein kinase) from immature ear extract

B1: GST-ZMWEE1 (glutathione S-transferase ZMWEE1 fusion protein, from pGEX2Tzmwee1, made in E. coli) (protein)
chain: CTPDYITPEMPQVANEFDDDDKENIPCPKSPEKSANPRSKRYRTDCSPKAREVTDFSFDHQITPVLFDSLTRDDSEEEQPKQPALEKRGGYVSQSAVALRCRVMPPPCVKNPYLNTDPCIDAAVYGGRQCNSAVFSPSIGGNGLSRYRTDFHEIEKIGYGNFSVVFKVLNRIDGCLYAVKRSIKQLHNDMERRQAVKEVQAMAALGSHENIVRYFTSWFENEQLYIQMELCDRCLSMNRNQPVKRGEALELLYQICKGLDFMHERGIAHLDVKPDNIYVRNGIYKLGDFGCATLVNRSLAIEDGDSRYMPPEMLNDKYEHLDKVDIFSLGAAVYELIRGTPLPESGSHFTSIREGKIALLPGCPMQFQSLIKSMMDPDPVRRPSAKEILRHPSFDKLHKASSK
What does the source list for B1?
CDK activity (histone H1 kinase activity) of CDK adsorbed by p13^suc1: GST-ZMWEE1, with or without pre-incubation, inhibited CDK activity; histone H1-kinase activity in crude immature ear extract: GST-ZMWEE1 inhibits the histone H1-kinase activity in the extract

Reference: patent US20030041342
